Residue numbers refer to the chain shown, from its start.
B1: t865724 (protein)
chain: MGNTTSIAGRDCLISALGGNSALAVFPNELLWTADVHEYNLNLPVTPAAITYPETAAQIAGVVKCASDYDYKVQARSGGHSFGNYGLGGADGAVVVDMKHFNQFSMDDETYEAVIGPGTTLNDVDIELYNNGKRAMAHGVCPTIKTGGHFTIGGLGPTARQWGLALDHVEEVEVVLANSSIVRASNTQNQDVFFAVKGAAANFGIVTEFKVRTEPAPGLAVQYSYTFNLGSTAEKAQFVKDWQSFISAKNLTRQFYNNMVIFDGDIILEGLFFGSKEQYDALGLEDHFAPKNPGNILVLTDWLGMVGHALEDTILKLVGNTPTWFYAKSLGFRQDTLIPSAGIDEFFEYIANHTAGTPAWFVTLSLEGGAINDVAEDATAYAHRDVLFWVQLFMVNPVGPISDTTYEFTDGLYDVLARAVPESVGHAYLGCPDPRMEDAQQKYWRTNLPRLQELKEELDPKNTFHHPQGVMPA
B2: t865730 (protein)
chain: B1 chain with N102T, N202G
B3: t865735 (protein)
chain: B1 chain with N102T, T446P
B4: t878468 (protein)
chain: B1 chain with A57E, N102T
modifications: expressed in S. cerevisiae strain
B5: t865758 (protein)
chain: B1 chain with N102T, E456A
modifications: expressed in S. cerevisiae strain
B6: t865795 (protein)
chain: B1 chain with N102T, F262I
modifications: expressed in S. cerevisiae strain
B7: t878466 (protein)
chain: B1 chain with N102T, Q161K
modifications: expressed in S. cerevisiae strain
B8: t865721 (protein)
chain: B1 chain with N102T, Y256F
B9: t865809 (protein)
chain: B1 chain with N102T, N122G
modifications: expressed in S. cerevisiae strain
B10: t865814 (protein)
chain: B1 chain with N102T, D280N
modifications: expressed in S. cerevisiae strain
B11: t865796 (protein)
chain: B1 chain with N102T, L458W
modifications: expressed in S. cerevisiae strain
B12: t865733 (protein)
chain: B1 chain with N102T, V398T
B13: t865727 (protein)
chain: B1 chain with N102T, H353A
B14: t865731 (protein)
chain: B1 chain with V25A, N102T
B15: t865740 (protein)
chain: B1 chain with N102T, N122E

Key:
[1] = system: CBCVA, THCVA, and CBDVA production; assay: In vivo TS activity assay, Example 2 protein engineering of A. niger CBCAS, cultures fed divaric acid; format: cell-based, S. cerevisiae; conditions: fed divaric acid; for Mean CBCVA / Mean CBDVA / Mean THCVA: S. cerevisiae strains expressing A. niger CBCAS mutants, secondary screen; for % CBCVA / % CBDVA / % THCVA: share of terminal cannabinoid product profile
Procedure, shortened: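 Quantification by LC-MS of methanol-extracted production cultures, strains in quadruplicate. Yeast carrying mutant A. niger CBCAS (MFalpha2 N-terminal and HDEL C-terminal signal peptides) were induced 4 days at 20 °C in YEP+4% galactose fed 1 mM divaric acid, re-dosed every 24 h with 2% galactose and 1 mM divaric acid, after 2 days of dextrose preculture at 30 °C; 100 mM citrate pH 5.5 was then added for 2 more days.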

[2] = system: CBCA, THCA, and CBDA production; assay: In vivo TS activity assay, Example 2 protein engineering of A. niger CBCAS, cultures fed olivetolic acid; format: cell-based, S. cerevisiae; conditions: for Mean CBCA / Mean CBDA / Mean THCA: secondary screen, olivetolic acid (Table 8); for % CBCA / % CBDA / % THCA: share of terminal cannabinoid product profile
Procedure, shortened: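 CBCA, THCA and CBDA were measured by LC-MS in methanol extracts of yeast cultures expressing mutant A. niger CBCAS. Cultures were induced at 20 °C with galactose and fed 1 mM olivetolic acid daily for 4 days, then buffered with 100 mM sodium citrate pH 5.5. Secondary screen: quadruplicates fed 1 mM olivetolic or divaric acid.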

Molecule	Mean CBCVA [1]	Mean CBDVA [1]	Mean THCVA [1]	% CBCVA [1]	% CBDVA [1]	% THCVA [1]	Mean CBCA [2]	Mean CBDA [2]	Mean THCA [2]	% CBCA [2]	% CBDA [2]	% THCA [2]
B1	2190.11 µg/L	0.00 µg/L	1153.25 µg/L	65.51%	0.00%	34.49%	30758.44 µg/L	7663.56 µg/L	2146.00 µg/L	75.82%	18.89%	5.29%
B2	3406.05 µg/L	0.00 µg/L	1922.88 µg/L	63.92%	0.00%	36.08%	27874.45 µg/L	8385.38 µg/L	1771.94 µg/L	73.29%	22.05%	4.66%
B3	2900.35 µg/L	0.00 µg/L	1459.81 µg/L	66.52%	0.00%	33.48%	27519.94 µg/L	7436.20 µg/L	1783.72 µg/L	74.90%	20.24%	4.85%
B4	2954.90 µg/L	0.00 µg/L	1628.92 µg/L	64.46%	0.00%	35.54%	26823.18 µg/L	8556.40 µg/L	1922.88 µg/L	71.91%	22.94%	5.15%
B5	3465.87 µg/L	0.00 µg/L	1548.62 µg/L	69.12%	0.00%	30.88%	26316.76 µg/L	6998.62 µg/L	1712.53 µg/L	75.13%	19.98%	4.89%
B6	1897.16 µg/L	0.00 µg/L	1181.24 µg/L	61.63%	0.00%	38.37%	24874.10 µg/L	7028.82 µg/L	1807.99 µg/L	73.79%	20.85%	5.36%
B7	2985.03 µg/L	0.00 µg/L	1623.40 µg/L	64.77%	0.00%	35.23%	23882.09 µg/L	8030.74 µg/L	1649.00 µg/L	71.16%	23.93%	4.91%
B8	3281.34 µg/L	0.00 µg/L	1482.54 µg/L	68.88%	0.00%	31.12%	21099.41 µg/L	5260.35 µg/L	1396.80 µg/L	76.02%	18.95%	5.03%
B9	3093.25 µg/L	0.00 µg/L	1662.32 µg/L	65.04%	0.00%	34.96%	20413.40 µg/L	6738.75 µg/L	1390.36 µg/L	71.52%	23.61%	4.87%
B10	3290.24 µg/L	0.00 µg/L	1468.01 µg/L	69.15%	0.00%	30.85%	20192.93 µg/L	6751.44 µg/L	1367.48 µg/L	71.32%	23.85%	4.83%
B11	2570.89 µg/L	0.00 µg/L	1344.71 µg/L	65.66%	0.00%	34.34%	19975.57 µg/L	6427.56 µg/L	1436.09 µg/L	71.75%	23.09%	5.16%
B12	2023.09 µg/L	0.00 µg/L	1202.96 µg/L	62.71%	0.00%	37.29%	18070.99 µg/L	6320.33 µg/L	1307.71 µg/L	70.32%	24.59%	5.09%
B13	1829.32 µg/L	0.00 µg/L	981.31 µg/L	65.09%	0.00%	34.91%	16276.39 µg/L	4297.38 µg/L	1177.87 µg/L	74.83%	19.76%	5.42%
B14	1605.94 µg/L	0.00 µg/L	885.33 µg/L	64.46%	0.00%	35.54%	16059.53 µg/L	4006.74 µg/L	971.80 µg/L	76.34%	19.05%	4.62%
B15	1153.83 µg/L	0.00 µg/L	469.98 µg/L	71.06%	0.00%	28.94%	11837.41 µg/L	3671.56 µg/L	685.53 µg/L	73.10%	22.67%	4.23%
